Measurements as given in patent US7148006.

What was measured:
[1] = biological target: GST (glutathione-S-transferase alone) [GST: P08515]
[2] = biological target: T1, GST-NS5A (HCV-1a NS5A aa 1-427 fused in frame with glutathione-S-transferase), P26664
T1 chain: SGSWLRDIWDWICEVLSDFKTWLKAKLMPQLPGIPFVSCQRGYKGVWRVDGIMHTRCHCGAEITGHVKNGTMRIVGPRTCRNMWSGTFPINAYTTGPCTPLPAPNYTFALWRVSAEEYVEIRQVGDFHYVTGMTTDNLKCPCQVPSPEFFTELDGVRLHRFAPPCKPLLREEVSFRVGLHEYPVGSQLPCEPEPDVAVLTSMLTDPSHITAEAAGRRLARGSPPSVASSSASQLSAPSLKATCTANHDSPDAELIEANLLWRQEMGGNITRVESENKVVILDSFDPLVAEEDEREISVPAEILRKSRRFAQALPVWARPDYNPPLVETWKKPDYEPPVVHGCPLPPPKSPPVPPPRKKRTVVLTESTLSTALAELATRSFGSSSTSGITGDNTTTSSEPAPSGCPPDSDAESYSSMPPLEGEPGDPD

[3] = biological target: T2, NS5A 1a-wt (full-length NS5A from IFN-resistant HCV-1a, untagged), P26664
T2 chain: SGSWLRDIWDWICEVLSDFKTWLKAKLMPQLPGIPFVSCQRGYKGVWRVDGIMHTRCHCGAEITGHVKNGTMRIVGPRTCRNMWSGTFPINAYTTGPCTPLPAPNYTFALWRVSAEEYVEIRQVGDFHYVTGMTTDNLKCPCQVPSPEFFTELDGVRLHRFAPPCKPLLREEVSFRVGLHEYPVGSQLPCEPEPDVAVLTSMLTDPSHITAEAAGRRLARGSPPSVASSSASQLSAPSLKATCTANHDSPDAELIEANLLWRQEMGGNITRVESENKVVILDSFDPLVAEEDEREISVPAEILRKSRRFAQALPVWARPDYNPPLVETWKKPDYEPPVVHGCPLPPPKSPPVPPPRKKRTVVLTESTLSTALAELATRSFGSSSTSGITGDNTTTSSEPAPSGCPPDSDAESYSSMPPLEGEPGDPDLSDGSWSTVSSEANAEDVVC

[4] = biological target: NS5A 1b-2 (untagged, expressed from pYES-NS5A 1b-2)
[5] = biological target: NS5A 1b-4 (untagged, expressed from pYES-NS5A 1b-4)
[6] = biological target: NS5A 1b-5 (untagged, expressed from pYES-NS5A 1b-5)
[7] = biological target: NS5A 1b-wt (untagged, expressed from pYES-NS5A 1b-wt)
[8] = biological target: vaccinia virus K3L protein, P18378

B1: wild type human PKR, full length (aa 1-551) (protein)
chain: MAGDLSAGFFMEELNTYRQKQGVVLKYQELPNSGPPHDRRFTFQVIIDGREFPEGEGRSKKEAKNAAAKLAVEILNKEKKAVSPLLLTTTNSSEGLSMGNYIGLINRIAQKKRLTVNYEQCASGVHGPEGFHYKCKMGQKEYSIGTGSTKQEAKQLAAKLAYLQILSEETSVKSDYLSSGSFATTCESQSNSLVTSTLASESSSEGDFSADTSEINSNSDSLNSSSLLMNGLRNNQRKAKRSLAPRFDLPDMKETKYTVDKRFGMDFKEIELIGSGGFGQVFKAKHRIDGKTYVIKRVKYNNEKAEREVKALAKLDHVNIVHYNGCWDGFDYDPETSDDSLESSDYDPENSKNSSRSKTKCLFIQMEFCDKGTLEQWIEKRRGEKLDKVLALELFEQITKGVDYIHSKKLIHRDLKPSNIFLVDTKQVKIGDFGLVTSLKNDGKRTRSKGTLRYMSPEQISSQDYGKEVDLYALGLILAELLHVCDTAFETSKFFTDLRDGIISDIFDKKEKTLLQKLLSKKPEDRPNTSEILRTLTVWKKSPEKNERHTC
- PKR autophosphorylation and phosphorylation of an exogenous histone substrate, in vitro kinase assay [1]: Equal molar levels of GST had no effect upon PKR activity
- PKR autophosphorylation and phosphorylation of an exogenous histone substrate, in vitro kinase assay [2]: as little as 0.2 pmol of NS5A can inhibit 1.8 pmol of PKR
- level of basally phosphorylated eIF-2α relative to total (isoelectric focusing, densitometry) [3]: NS5A, 9.8% (lane 2)
- level of unphosphorylated eIF-2α in yeast RY1-1 over vector control [3]: approximately an 11-fold increase in the level of unphosphorylated eIF-2α
- eIF-2α serine 51 phosphorylation in yeast RY1-1 (isoelectric focusing immunoblot) [4]: possessed predominantly the hyper-phosphorylated isoform of eIF-2α, similar to the vector control strain
- eIF-2α serine 51 phosphorylation in yeast RY1-1 (isoelectric focusing immunoblot) [5]: possessed predominantly the hyper-phosphorylated isoform of eIF-2α, similar to the vector control strain
- eIF-2α serine 51 phosphorylation in yeast RY1-1 (isoelectric focusing immunoblot) [6]: possessed predominantly the hyper-phosphorylated isoform of eIF-2α, similar to the vector control strain
- eIF-2α serine 51 phosphorylation in yeast RY1-1 (isoelectric focusing immunoblot) [7]: exhibited a significant reduction in the level of hyper-phosphorylated eIF-2α
- level of basally phosphorylated eIF-2α relative to total (isoelectric focusing, densitometry) [8]: K3L, 11.7% (lane 3)
